Laboratory results published in patent US20240382588A1 (published 2024).

Columns and labels:
Experiment in all cases: multimer staining
[1] = target: T1, SmD1 (Smith protein) peptide on HLA-DRA*01:01 / HLA-DRB1*03:01 (human)
T1 peptide: TLLVDVEPKVKSKKR

[2] = target: T2, Ro60 peptide on HLA-DRA*01:01 / HLA-DRB1*03:01 (human)
T2 peptide: KRFLLAVDVSASMNQ

[3] = target: T3, MPO (myeloperoxidase) peptide on HLA-DRA*01:01 / HLA-DRB1*04:05 (human)
T3 peptide: MVQIITYRDYLPLVL

Measured: binding result

B1: Promiscuous self-TCR (TCR, V domains shown)
Valpha: RKEVEQDPGPFNVPEGATVAFNCTYSNSASQSFFWYRQDCRKEPKLLMSVYSSGNEDGRFTAQLNRASQYISLLIRDSKLSDSATYLCVVPPGGGFKTIFGAGTRLFVKA
Vbeta: EAQVTQNPRYLITVTGKKLTVTCSQNMNHEYMSWYRQDPGLGLRQIYYSMNVEVTDKGDVPEGYKVSRKEKRNFPLILESPSPNQTSLYFCASRTRTASYGYTFGSGTRLTVV
recognises: [1] | [2] | [3]
